Experimental data reported in patent publication US20260216242A1 (ALMAC DISCOVERY, published 2026).
Changes are numbered by the printed parent chain. In names and notes the source's numbering stands. Each block holds one binder with its values, some of them ahead of it.

Experiments:
[1] = biological target: T1, ALPI His homodimer (human, UniProt P09923 20-503); experiment: ELISA, antigen coated
T1 construct: Whole entry with His tag; used in ELISA and BLI; also called hALPI
T1 sequence: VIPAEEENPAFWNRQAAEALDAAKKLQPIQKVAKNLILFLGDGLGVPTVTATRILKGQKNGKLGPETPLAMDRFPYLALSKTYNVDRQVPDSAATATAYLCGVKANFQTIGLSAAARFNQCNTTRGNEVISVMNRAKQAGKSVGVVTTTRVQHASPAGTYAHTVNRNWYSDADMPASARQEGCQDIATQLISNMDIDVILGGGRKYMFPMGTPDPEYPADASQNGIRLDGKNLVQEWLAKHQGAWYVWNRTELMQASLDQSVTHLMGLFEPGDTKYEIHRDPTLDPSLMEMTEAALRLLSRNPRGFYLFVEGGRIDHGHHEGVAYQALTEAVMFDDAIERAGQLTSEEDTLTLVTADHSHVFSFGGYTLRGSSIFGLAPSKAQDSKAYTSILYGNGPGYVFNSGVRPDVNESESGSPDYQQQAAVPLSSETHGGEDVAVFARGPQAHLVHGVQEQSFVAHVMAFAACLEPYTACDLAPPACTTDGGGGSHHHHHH
Excerpt: (§1) ELISA was used to test the binding and specificity of the VHHs. […] Anti-Llama—HRP antibody was used for detection.

[2] = biological target: T2, ALPP CysHis (human, UniProt P05187 23-502); experiment: ELISA, antigen coated
T2 construct: Whole entry: engineered human ALPP with an introduced cysteine and a His tag; homodimer; also called engineered ALPP homodimer; hALPP (ELISA)
Excerpt: as §1

[3] = biological target: T3, Human ALPP (leucine zipper) (human); experiment: BLI, antigen immobilised
T3 construct: Whole entry: ALPP fused with a cysteine stabilised leucine zipper and His tag; also called hALPP
T3 chain: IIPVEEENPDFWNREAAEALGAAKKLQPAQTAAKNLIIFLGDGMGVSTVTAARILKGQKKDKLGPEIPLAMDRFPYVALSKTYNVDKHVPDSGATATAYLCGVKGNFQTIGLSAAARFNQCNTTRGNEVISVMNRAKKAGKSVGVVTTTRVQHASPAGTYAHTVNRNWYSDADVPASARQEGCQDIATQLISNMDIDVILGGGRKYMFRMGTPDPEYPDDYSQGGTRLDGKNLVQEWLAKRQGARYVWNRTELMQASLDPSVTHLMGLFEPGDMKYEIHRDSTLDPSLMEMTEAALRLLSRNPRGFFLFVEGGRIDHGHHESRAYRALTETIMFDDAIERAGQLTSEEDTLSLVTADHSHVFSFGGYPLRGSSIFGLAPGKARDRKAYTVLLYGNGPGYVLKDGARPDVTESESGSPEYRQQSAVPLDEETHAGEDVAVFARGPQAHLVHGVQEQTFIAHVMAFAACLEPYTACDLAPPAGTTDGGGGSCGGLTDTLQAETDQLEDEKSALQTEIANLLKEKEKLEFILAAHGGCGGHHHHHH
Protocol: (§2) Binding kinetics were determined using the Biolayer Interferometry (BLI) Octet K2 system (Sartorius). […] All assays were conducted in PBS with a plate temperature of 25° C. Ka (M⁻¹s⁻¹), Kd (s⁻¹) and KD (nM) values were determined using Octet Data Analysis High Throughput software (ForteBio) for Biolayer Interferometry.

[4] = biological target: T4, Human ALPL (leucine zipper) (human); experiment: BLI, antigen immobilised
T4 construct: Whole entry: fused with a cysteine stabilised leucine zipper and His tag; also called hALPL
T4 chain: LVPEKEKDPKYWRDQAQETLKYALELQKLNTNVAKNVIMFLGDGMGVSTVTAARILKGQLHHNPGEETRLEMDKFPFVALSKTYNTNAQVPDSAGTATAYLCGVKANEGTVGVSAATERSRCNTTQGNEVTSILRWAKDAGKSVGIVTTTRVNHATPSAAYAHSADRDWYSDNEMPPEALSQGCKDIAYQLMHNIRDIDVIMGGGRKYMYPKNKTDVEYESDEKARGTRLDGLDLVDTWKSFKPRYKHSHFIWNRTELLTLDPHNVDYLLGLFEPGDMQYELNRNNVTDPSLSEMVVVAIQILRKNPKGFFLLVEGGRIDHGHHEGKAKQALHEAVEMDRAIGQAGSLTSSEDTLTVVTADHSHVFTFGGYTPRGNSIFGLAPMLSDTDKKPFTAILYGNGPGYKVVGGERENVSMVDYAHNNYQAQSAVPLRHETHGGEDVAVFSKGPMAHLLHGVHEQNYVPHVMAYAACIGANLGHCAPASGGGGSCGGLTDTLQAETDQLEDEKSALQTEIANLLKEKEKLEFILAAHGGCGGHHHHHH
Protocol: as §2

[5] = biological target: T5, human ALPL on CHO cells (human, UniProt P05186 18-501); experiment: flow cytometry, CHO cells stably expressing human ALPL; PDC detected with FITC anti-human Ab
T5 construct: whole, on cells; also called CHO-ALPL
T5 sequence (looked up): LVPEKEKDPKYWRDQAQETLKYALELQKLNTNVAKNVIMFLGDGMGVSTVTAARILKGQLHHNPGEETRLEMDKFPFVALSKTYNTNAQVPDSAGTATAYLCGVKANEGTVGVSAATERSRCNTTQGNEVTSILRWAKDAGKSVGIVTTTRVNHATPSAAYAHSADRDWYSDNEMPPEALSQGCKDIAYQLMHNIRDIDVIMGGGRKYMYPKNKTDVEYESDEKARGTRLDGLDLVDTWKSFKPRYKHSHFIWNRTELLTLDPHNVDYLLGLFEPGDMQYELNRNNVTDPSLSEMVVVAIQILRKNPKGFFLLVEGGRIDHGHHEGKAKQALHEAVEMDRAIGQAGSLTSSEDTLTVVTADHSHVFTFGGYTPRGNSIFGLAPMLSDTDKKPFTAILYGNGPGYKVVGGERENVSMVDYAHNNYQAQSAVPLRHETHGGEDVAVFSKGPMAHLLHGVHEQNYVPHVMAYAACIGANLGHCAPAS
Protocol: (§3) Biparatopic VHH-hFc drug conjugates were assessed for human ALPP, ALPPL2, ALPI and ALPL cell-surface binding by flow cytometry. Binders were screened on CHO cells stably expressing human ALPP, ALPPL2, ALPI or ALPL.
(§4) Cell surface binding of test agents to hALPP isoforms was characterized in four CHO-ALPP isoform transfectant cell lines (CHO-ALPP, CHO-ALPPL2, CHO-ALPI and CHO-ALPL) and the resulting KDapp values determined. Adherent cells were detached from tissue culture flasks by incubating with 0.1% EDTA/PBS solution at 37° C. for […] or until cells detached easily. Cells were re-suspended in ice-cold PBS/2% FCS in 15 ml tubes and centrifuged at 1700 rpm for 5 mins at 4° C. Supernatant was removed and the cell pellet re-suspended in PBS/2% FCS. […] Cells were incubated with 100 μl of test agents at a range of concentrations, plus controls for 1 hr on ice. The sample plate was centrifuged at 1700 rpm for 5 mins at 4° C. The supernatant was removed, and a wash performed by re-suspending the cell pellets in 0.25 mL of ice-cold PBS/2% FCS using a multichannel pipette. Samples were again centrifuged at 1700 rpm for 5 min at 4° C. Supernatant was removed and two further washes performed as described. After the final wash and centrifugation step, excess liquid was removed by blotting the plate on tissue paper. Binding of VHH-hFc agents was determined by adding 100 μl of Fitc-anti-human Ab (ThermoFisher) and incubating for 30 mins on ice in the dark. Wash steps were performed as described previously. All cell pellets were finally re-suspended in 0.28 ml of ice-cold PBS/2% FCS and left on ice in the dark prior to analysis on a Merck-Millipore Guava EasyCyte HT or Thermo Fisher Attune N×T flow cytometer.

[6] = biological target: T6, human ALPI on CHO cells (human, UniProt P09923 20-503); experiment: flow cytometry, CHO cells stably expressing human ALPI; PDC detected with FITC anti-human Ab
T6 construct: whole, on cells; also called CHO-ALPI
T6 sequence (looked up): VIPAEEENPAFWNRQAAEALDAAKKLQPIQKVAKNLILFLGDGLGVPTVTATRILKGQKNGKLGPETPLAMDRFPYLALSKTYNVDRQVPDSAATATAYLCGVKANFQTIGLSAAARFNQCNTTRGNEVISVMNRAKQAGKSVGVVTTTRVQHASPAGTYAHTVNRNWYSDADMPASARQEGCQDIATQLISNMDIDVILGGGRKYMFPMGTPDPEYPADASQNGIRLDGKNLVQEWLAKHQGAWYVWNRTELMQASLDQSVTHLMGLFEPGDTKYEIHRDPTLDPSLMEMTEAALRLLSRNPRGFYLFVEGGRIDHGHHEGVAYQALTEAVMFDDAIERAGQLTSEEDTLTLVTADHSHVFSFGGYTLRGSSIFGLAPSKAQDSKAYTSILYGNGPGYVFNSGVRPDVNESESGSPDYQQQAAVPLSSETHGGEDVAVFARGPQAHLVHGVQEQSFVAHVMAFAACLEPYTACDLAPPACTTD
Protocol: as §3, §4

B1: B09 (VHH, not shown: small tags and cut ends)
VHH: QVQLVESGGGSVQAGGSLRLSCAASGPSLSHYAMGWFRQAPGKEREFVAGISWGGGRTSYTDSVKGRFTISRDNAKNTVYLQMNNLKPEDTGVYYCAGRYGRGRNVEYEYDYWGQGTQVTVSS
binding result [1]: no binding (tested: 500 ng VHH) | binding result [2]: binds | Kd [3]: < 0.01 nM | koff [3]: < 1e-07 s⁻¹ | kon [3]: 237000 M⁻¹ s⁻¹ | binding result [4]: no binding

B2: H09 (VHH, not shown: small tags and cut ends)
VHH: B1 VHH with A14T, H31N, S59N, T61L, V79M, N85S, G92A, N105D
binding result [1]: no binding (tested: 500 ng VHH) | binding result [2]: binds | Kd [3]: < 0.01 nM | koff [3]: < 1e-07 s⁻¹ | kon [3]: 58600 M⁻¹ s⁻¹ | binding result [4]: no binding

B3: E11 (VHH, not shown: small tags and cut ends)
VHH: B1 VHH with H31N, Y32F, A40P
binding result [1]: no binding (tested: 500 ng VHH) | binding result [2]: binds | kon [3]: 149000 M⁻¹ s⁻¹ | binding result [4]: no binding

B4: H10 (VHH, not shown: small tags and cut ends)
VHH: B1 VHH with A14T, H31N, S59N, T61L, V79M, N85S, T91A, G92A, N105D
binding result [1]: no binding (tested: 500 ng VHH) | binding result [2]: binds | Kd [3]: 0.19 nM | koff [3]: 8.5e-06 s⁻¹ | kon [3]: 45900 M⁻¹ s⁻¹ | binding result [4]: no binding

B7: D10-E06 hFc-vcPAB-MMAE [G4S]3 (Fc fusion, DAR 4)
chain 1: QVQLVESGGGLVQPGGSLRLSCAASGSIFSVNTMGWYRQAPGKQRDLVAVATSGGTIHYADSVKGRFTISRDNAKNTVYLQMNSLKPEDTAVYYCNLVVPYGMIAGDHDYWGQGTKVTVSSGGGGSGGGGSGGGGSEPKSSDKTHTCPPCPAPELLGGPCVFLFPPKPKDTLMISRTPEVTCVVVDVSHEDPEVKFNWYVDGVEVHNAKTKPREEQYNSTYRVVSVLTVLHQDWLNGKEYKCKVSNKALPAPIEKTISKAKGQPREPQVYTLPPSRDELTKNQVSLYCLVKGFYPSDIAVEWESNGQPENNYKTTPPVLDSDGSFFLYSKLTVDKSRWQQGNVFSCSVMHEALHNHYTQKSLCLSPGK
chain 2: QVHLVESGGGLVQAGGSLRLSCAASRRSFSEYAMGWFRQAPGKEREFVAAIGWSGVIEYADSVKGRFTISRDNAKDTVYLQMNSLKPEDTAVYYCAAGLGIRVVSQTPAYWGQGTQVTVSSGGGGSGGGGSGGGGSEPKSSDKTHTCPPCPAPELLGGPCVFLFPPKPKDTLMISRTPEVTCVVVDVSHEDPEVKFNWYVDGVEVHNAKTKPREEQYNSTYRVVSVLTVLHQDWLNGKEYKCKVSNKALPAPIEKTISKAKGQPREPQVYTLPPSRDELTKNQVSLTCLVKGFYPSDIAVEWESNGQPENNYKTTPPVLDSDGSFFLTSKLTVDKSRWQQGNVFSCSVMHEALHNHYTQKSLCLSPGK
modifications: MC-vc-PAB-MMAE on Cys 239 and Cys 442 (EU numbering)
notes: Biparatopic drug conjugate, DAR 4; also called #634
binding result [5]: no binding (tested: 350 nM) | binding result [6]: no binding (tested: 350 nM)

Other lines, results leading:

binding result [1]: no binding (tested: 500 ng VHH) | binding result [2]: binds | Kd [3]: < 0.01 nM | koff [3]: < 1e-07 s⁻¹ | kon [3]: 40600 M⁻¹ s⁻¹ | binding result [4]: no binding
B5: F09 (VHH, not shown: small tags and cut ends)
VHH: B1 VHH with H31N, Y60C

binding result [1]: no binding (tested: 500 ng VHH) | binding result [2]: binds | binding result [4]: no binding
B6: E12 (VHH, not shown: small tags and cut ends)
VHH: B1 VHH with L29I, H31N, Y32F, S59N, T61L, T78M, Y80H, N85S, G92T, N105D

binding result [1]: no binding (tested: 500 ng VHH) | binding result [2]: binds | Kd [3]: < 0.01 nM | koff [3]: < 1e-07 s⁻¹ | kon [3]: 38600 M⁻¹ s⁻¹ | binding result [4]: no binding
B8: F12 (VHH, not shown: small tags and cut ends)
VHH: QVQLVESGGGLVEAGGSLRLSCAVSGSALSDYNIGWFRQAPGKEREFVARKTWDGSSTKYDDSVKGRFTVSIDNAKNTAYLQMNSLKTEDTAVYYCAAGRYSRVRGWEYDYWGQRTQVTVSS
